Biological target: human CD22-beta-ECD-His tagged soluble antigen (human) (UniProt P20273)
Assay: SPR (BIACORE 3000), antibody coupled to the chip, soluble CD22-beta-ECD-His injected, 25 C

Sequence of human CD22-beta-ECD-His tagged soluble antigen (human) (P20273 other isoform, or with tags, fused parts or gaps): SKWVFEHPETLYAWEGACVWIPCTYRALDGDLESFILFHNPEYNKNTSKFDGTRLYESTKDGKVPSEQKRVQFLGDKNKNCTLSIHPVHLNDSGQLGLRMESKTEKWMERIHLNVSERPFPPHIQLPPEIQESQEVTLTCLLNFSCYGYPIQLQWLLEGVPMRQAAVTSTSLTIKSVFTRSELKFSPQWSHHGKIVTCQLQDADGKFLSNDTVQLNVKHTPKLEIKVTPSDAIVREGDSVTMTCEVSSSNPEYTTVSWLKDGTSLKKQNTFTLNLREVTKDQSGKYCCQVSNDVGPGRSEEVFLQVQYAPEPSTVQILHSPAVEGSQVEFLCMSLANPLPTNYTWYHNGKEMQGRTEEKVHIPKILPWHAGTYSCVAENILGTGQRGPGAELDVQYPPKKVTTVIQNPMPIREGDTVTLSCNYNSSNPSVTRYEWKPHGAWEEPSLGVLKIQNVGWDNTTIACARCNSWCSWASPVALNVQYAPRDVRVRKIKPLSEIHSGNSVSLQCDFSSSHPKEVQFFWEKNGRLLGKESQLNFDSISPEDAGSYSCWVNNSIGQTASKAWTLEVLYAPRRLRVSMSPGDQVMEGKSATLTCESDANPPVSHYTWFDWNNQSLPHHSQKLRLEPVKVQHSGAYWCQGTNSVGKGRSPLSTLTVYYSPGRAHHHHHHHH

Kd: 4.2 nM
koff: 0.00014 s⁻¹
kon: 33000 M⁻¹ s⁻¹
B1: anti-CD22 antibody RFB4 (antibody, from another filing, V domains shown)
VH: EVQLVESGGGLVKPGGSLKLSCAASGFAFSIYDMSWVRQTPEKRLEWVAYISSGGGTTYYPDTVKGRFTISRDNAKNTLYLQMSSLKSEDTAMYYCARHSGYGSSYGVLFAYWGQGTLVTVSA
VL: DIQMTQTTSSLSASLGDRVTISCRASQDISNYLNWYQQKPDGTVKLLIYYTSILHSGVPSRFSGSGSGTDYSLTISNLEQEDFATYFCQQGNTLPWTFGGGTKLEIK
